Literature values, collected in publication PMC11806408.

Biological target: BMP-10 GF growth factor (Homo sapiens) (UniProt O95393)
Sequence (O95393 317-424): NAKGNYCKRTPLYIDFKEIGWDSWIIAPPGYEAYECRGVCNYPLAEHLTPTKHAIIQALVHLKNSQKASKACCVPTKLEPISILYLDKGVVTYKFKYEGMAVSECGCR

Chain of BMP-10 PD prodomain (O95393 22-316): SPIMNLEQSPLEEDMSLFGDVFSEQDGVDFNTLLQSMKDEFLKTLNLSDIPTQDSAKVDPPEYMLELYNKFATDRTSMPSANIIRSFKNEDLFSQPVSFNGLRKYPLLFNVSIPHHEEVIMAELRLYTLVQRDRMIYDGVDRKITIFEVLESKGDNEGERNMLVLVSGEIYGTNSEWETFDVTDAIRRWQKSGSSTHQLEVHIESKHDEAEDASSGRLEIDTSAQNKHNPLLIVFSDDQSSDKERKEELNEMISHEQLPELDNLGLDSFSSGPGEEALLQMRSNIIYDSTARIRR

Kd: 7 nM
Substance: BMP-10 PD prodomain (from UniProt O95393)
